Earlier results as cited in publication PMC7179994.
Read-outs that look alike come from different tables or passages of the source. Each block holds one substance with its values, some of them ahead of it.

Assays:
[1] = target: VE-cadherin (Homo sapiens) (UniProt P33151)
[2] = target: VLDL receptor (Homo sapiens) (UniProt P98155)
[3] = target: VE-cadherin (Homo sapiens) (UniProt P33151); remark: listed apart in the source

Sequence of VE-cadherin (Homo sapiens) (P33151 48-599): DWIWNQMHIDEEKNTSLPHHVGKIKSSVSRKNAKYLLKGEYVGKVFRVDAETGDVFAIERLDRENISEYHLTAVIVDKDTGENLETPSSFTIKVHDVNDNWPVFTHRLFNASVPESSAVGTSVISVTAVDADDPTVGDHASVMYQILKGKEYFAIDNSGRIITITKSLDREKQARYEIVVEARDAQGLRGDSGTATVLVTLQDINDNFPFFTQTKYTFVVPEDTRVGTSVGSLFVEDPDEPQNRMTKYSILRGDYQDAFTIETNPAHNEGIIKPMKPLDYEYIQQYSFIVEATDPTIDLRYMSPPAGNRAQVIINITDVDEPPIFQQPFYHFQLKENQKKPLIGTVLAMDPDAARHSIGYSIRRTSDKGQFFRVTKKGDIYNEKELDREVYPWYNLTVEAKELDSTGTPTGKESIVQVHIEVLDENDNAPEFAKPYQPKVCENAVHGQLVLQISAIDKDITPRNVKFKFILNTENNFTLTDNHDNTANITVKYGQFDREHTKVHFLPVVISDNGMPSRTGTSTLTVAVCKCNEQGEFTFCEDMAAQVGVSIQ
Sequence of (β15–44)2 15-44 (P02675 15-44): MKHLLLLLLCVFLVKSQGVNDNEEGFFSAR
Sequence of fibrin β15–42 15-42 (P02675 15-42): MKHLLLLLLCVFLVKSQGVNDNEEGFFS

Kd [1]: 715 nM
Substance: (β15–44)2 15-44 (from UniProt P02675)

Kd [2]: 9.2 nM
Substance: fibrin (from UniProt P02671)

Kd [3]: 267000 nM
Substance: fibrin β15–42 15-42 (from UniProt P02675)
